Residue numbers refer to the chain shown, from its start.
B1: AC-III probe (dsDNA)
DNA 1: CCAGTCCACCTAACTCTACCTAACTCTACCTAACGCTGTTC
DNA 2: GAACAGCGTTAGGTAGAGTTAGGTAGAGTTAGGTGGACTGG
B2: AC-IV probe (dsDNA)
DNA 1: B1 DNA 1 with T11A, T21A, T31A
DNA 2: B1 DNA 2 with A11T, A21T, A31T
B3: AC-I probe (dsDNA)
DNA 1: CGGTACCAGTCCACCTACCGCCACCTACCGCCACCTACCGCTGTTCTCGA
DNA 2: TCGAGAACAGCGGTAGGTGGCGGTAGGTGGCGGTAGGTGGACTGGTACCG
B4: AC-II probe (dsDNA)
DNA 1: B3 DNA 1 with T16A, T26A, T36A
DNA 2: B3 DNA 2 with A15T, A25T, A35T

Molecular target: CsMYB4a (Camellia sinensis, UniProt A0A1V0G0T8 1-244)
Sequence (A0A1V0G0T8 entry or part of it): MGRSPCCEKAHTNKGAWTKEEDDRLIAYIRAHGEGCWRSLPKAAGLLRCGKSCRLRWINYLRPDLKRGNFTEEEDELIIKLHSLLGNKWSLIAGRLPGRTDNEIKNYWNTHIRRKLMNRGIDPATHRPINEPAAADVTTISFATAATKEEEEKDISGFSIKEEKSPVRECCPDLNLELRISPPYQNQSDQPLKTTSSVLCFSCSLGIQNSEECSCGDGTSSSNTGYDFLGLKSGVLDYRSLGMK
Experiment: EMSA; Not given; EMSA according to Shen et al. 2012; salmon sperm DNA as non-specific competitor
Settings: protein: recombinant; tags: N-terminal His-tag; blunt

Binding result, binds:
B1
B2
B3
B4

Source: paper PMC5467005, “Functional Characterization of Tea (Camellia sinensis) MYB4a Transcription Factor Using an Integrative Approach”
